The results in this text go back to patent US20220133733A1 (Bicycle, published 2022).

Assay [1] has as its target T1, human CD38 (human, UniProt P28907 43-300, limits assumed).
T1 construct: also called hCD38
T1 sequence (looked up): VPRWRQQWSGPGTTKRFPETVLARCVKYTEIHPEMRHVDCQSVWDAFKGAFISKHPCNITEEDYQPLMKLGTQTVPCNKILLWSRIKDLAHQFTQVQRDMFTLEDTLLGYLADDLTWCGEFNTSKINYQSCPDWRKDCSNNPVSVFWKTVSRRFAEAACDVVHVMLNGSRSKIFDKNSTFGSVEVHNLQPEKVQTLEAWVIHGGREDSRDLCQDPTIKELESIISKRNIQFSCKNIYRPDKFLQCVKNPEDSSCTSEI
In words: fluorescence polarisation competition, tracer …-Sar6-K(Fl). Background: In fluorescence polarisation assays a small probe gives low polarisation when free and higher when bound to something large.

Assay [2] addresses T1, human CD38. The description is as above. The source holds these as a separate data set.

Usually Ki stands for a dissociation constant, usually derived from enzyme kinetics or from competition with a known ligand.

Like-named read-outs stand apart in the source and are kept apart here. Starred links: 1 amine or outer side, 2 acyl side, 3 side chain; linkers in the order of their positions; H or OH if unused. Positions of bridges follow the written chain, without caps; N, C: chain ends. No end group written: not given here. TBMB = c1c(C[*:1])cc(C[*:3])cc1C[*:2]

B1: BT66BDC-1 (peptide)
peptide: XXXXXXXXXXXACVPCADFPIWYC
modifications: DM1 toxin conjugated to the peptide through a linker shown only in the drawing of formula (I); N-terminal beta-alanine followed by ten sarcosines (Sar10); Ci, Cii and Ciii bound to TBMB scaffold
notes: The attachment site and linker stand only in drawings; also called BDC of formula (I)
B1 displayed a Ki with human CD38 [1] of 0.144 µM. This counts as sub-micromolar.
ACFTLDGECFLLGENCA (linker 2-9-16 via TBMB (inferred)) [66-08-52-N001] displayed an inhibitory constant (Ki) with human CD38 [2] of 0.562 µM.
